Measurements taken from patent US7255985B2, “Fluorine NMR spectroscopy for biochemical screening” (Pfizer Italia S.r.l., priority 2003, dated 2007).
Each block holds one compound with its values, some of them ahead of it. Non-standard residues stand in square brackets, D forms with d. No end group written: not given here. *: point of attachment. Phe(3-CF3) = N[C@@H](Cc1cccc(C(F)(F)F)c1)C(=O)O; Tfa = O=C(C(F)(F)F)*

How the values were obtained:
Format in all cases: biochemical
[1] = biological target: T1, protein Ser/Thr kinase AKT1 (Homo sapiens, UniProt P31749); test: 19F NMR assay of phosphorylation of CF3-labeled peptide by AKT1
T1 construct: baculovirus coding for the full length protein fused to GST at the N-terminus; GST (N, cleaved yes); made in house; host or cells: Sf21 insect cells (baculovirus), treated with okadaic acid before harvest
Description: D2O was added to the solutions (8% final concentration) for the lock signal.

[2] = biological target: T2, trypsin from bovine pancreas (Bos taurus, UniProt P00760); test: 19F NMR assay of cleavage of CF3-labeled peptide by trypsin; conditions: 15 nM trypsin
T2 construct: purchased Roche Molecular Biochemical 1418025; host or cells: bovine pancreas
T2 sequence (P00760 24-246): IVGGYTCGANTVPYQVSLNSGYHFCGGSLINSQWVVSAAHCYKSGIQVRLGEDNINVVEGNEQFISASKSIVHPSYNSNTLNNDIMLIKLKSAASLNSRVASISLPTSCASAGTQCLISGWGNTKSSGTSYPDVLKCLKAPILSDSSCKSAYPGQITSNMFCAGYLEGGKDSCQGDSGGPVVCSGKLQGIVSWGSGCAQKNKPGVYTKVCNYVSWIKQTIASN
Description: FIG. 4 provides the screening of proteases, where the substrate is the peptide of Seq ID NO:2 and the protein is trypsin from bovine pancreas. ^19F NMR spectra for the peptide in the absence (a) and in the presence (b–e) of trypsin. The reaction was run at 22° C. and quenched after 30 minutes with the addition of 0.5 mM phenylmethylsulfonyl fluoride (PMSF). The reaction was performed in the absence of compound (b), in the presence of a five compound mixture (2-amino-6 methylquinazolin-4 ol, ethyl 2-quinoxalinecarboxylate, 5-methyl-benzimidazole, methyl isoquinoline-3-carboxylate, and leupeptin) (c), in the presence of the same mixture without leupeptin (d), and in the presence of only leupeptin (e). The protein, peptide, and compound concentrations were 15 nM, 30 μM, and 20 μM, respectively. A total of 128 scans with 2.8 s repetition time were recorded for each spectrum (6 minute measuring time). Pep and C-pep are the substrate and the product respectively.
The method of the present invention can also be applied to many different types and subtypes of enzymes (e.g. proteases, phosphatases, ligases, etc.). […]
All NMR spectra were recorded at 20° C. with a 600 NMR spectrometer operating at a ^19F Larmor frequency of 564 MHZ. […]

[3] = biological target: T3, p21-activated kinase PAK4 (Homo sapiens, UniProt O96013); test: 19F NMR assay of CF3-labeled peptide with PAK4 (protein function)
T3 construct: GST (cleaved yes); made in house; host or cells: Escherichia coli
Description: FIG. 5 provides the 19F spectra of the peptide of Seq ID NO:2 in the presence of three different proteins, 25 nM AKT1 (FIG. 5A top), 15 nM trypsin (FIG. 5B middle) and 150 nM PAK4 (FIG. 5C bottom). […] The chemical shift of the cleaved peptide is quite different when compared to the chemical shift of the phosphorylated peptide.
In another embodiment of the present invention, three different proteins, AKT1, Trypsin, and p-21 activated protein (PAK4) were incubated with the CF3-labeled peptide of Seq ID NO:2. […] A higher concentration of the protein with unknown function and a longer incubation period may be required because the substrate may not be optimal for the protein with unknown function. The speed of the enzymatic reaction of PAK4 is only 1/22 of the speed of AKT1, therefore, the period of time for the reaction in the presence of PAK4 was longer than the period of time for the reaction in the presence of AKT1. The method of the present invention is also applicable to activated enzymes.
The serine/threonine p21-activated kinase PAK4 was expressed as a GST fusion protein in Escherichia coli and purified to homogeneity after removal of the GST tag.
All NMR spectra were recorded at 20° C. with a 600 NMR spectrometer operating at a ^19F Larmor frequency of 564 MHZ. A 5 mm probe tunable to either 19F or ^1H frequency was used. […]

T1 sequence (P31749 whole entry, the tested form may be a part): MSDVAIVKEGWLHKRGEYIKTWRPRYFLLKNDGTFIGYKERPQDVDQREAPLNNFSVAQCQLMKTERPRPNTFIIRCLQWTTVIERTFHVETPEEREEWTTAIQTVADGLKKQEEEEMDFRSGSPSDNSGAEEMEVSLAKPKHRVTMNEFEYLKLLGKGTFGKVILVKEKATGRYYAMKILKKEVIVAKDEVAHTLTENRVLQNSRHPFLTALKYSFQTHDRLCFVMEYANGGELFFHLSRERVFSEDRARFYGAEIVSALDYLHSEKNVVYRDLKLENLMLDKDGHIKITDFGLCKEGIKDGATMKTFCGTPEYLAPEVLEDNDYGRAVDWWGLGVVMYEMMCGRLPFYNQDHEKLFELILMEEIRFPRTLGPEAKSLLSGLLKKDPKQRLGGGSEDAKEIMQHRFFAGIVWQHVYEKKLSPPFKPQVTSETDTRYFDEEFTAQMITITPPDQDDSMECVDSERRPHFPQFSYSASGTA
T3 sequence (O96013 whole entry): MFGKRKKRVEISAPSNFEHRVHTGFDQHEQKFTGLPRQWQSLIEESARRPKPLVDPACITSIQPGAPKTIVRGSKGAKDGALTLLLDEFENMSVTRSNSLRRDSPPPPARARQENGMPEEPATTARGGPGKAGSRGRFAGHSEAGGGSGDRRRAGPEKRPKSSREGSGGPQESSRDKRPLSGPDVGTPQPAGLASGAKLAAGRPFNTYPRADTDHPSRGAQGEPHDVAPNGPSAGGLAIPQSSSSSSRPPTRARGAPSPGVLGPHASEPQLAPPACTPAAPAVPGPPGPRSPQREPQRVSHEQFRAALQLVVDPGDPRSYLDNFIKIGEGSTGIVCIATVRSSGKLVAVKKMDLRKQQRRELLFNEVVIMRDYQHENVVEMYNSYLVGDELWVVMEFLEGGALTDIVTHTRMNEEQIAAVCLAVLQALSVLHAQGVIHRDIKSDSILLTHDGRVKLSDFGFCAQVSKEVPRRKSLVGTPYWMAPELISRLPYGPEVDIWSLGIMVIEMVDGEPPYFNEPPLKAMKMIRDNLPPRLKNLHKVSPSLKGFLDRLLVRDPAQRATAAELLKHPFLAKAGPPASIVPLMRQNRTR

Km ([1]; 40 nM protein, 30 μM substrate peptide, 22° C., quenched after 60 minutes, read-out: KM / binding constant for ATP): 89 µM
Compound: Nc1ncnc2c1ncn2[C@@H]1O[C@H](COP(=O)(O)OP(=O)(O)OP(=O)(O)O)[C@@H](O)[C@H]1O [ATP]

speed of the enzymatic reaction of PAK4 relative to AKT1 ([3]; ratio to speed of AKT1): 1/22
substrate quality for trypsin [2]: good substrate
substrate quality for AKT1 ([1]; 25 nM AKT1): good substrate
Compound: ARKRERAF(3-CF3)SFGHHA (ARKRERA[Phe(3-CF3)]SFGHHA) [peptide of Seq ID NO:2, CF3-labeled peptide substrate for trypsin, AKT1 and PAK4]
19F signal after reaction with PAK4 ([3]; 150 nM PAK4): appearance of a signal at the chemical shift of the phosphorylated peptide

time after which the enzymatic reaction is complete ([1]; 50 nM protein, 30 μM peptide, 131 μM ATP, no inhibitor): 149 min
Compound: CF3—CO-ARKRERAYSFGHHA (Tfa-ARKRERAYSFGHHA) [CF3-labeled peptide of Seq ID NO:1, AKTide, 14 aminoacid peptide labeled with CF3 by N-terminal capping with trifluoroacetic anhydride]

More lines, now with the values behind:

Compound: O=S(=O)(NCCNC/C=C/c1ccc(Br)cc1)c1cccc2cnccc12 [H89]
inhibition of peptide phosphorylation ([1]; reaction in the presence of only H89 (deconvolution of five molecule mixture)): inhibitory effect over peptide phosphorylation

Compound: CC(=O)N[C@@H](CC(C)C)C(=O)N[C@@H](CC(C)C)C(=O)N[C@H](C=O)CCCNC(=N)N [leupeptin, reference compound]
inhibition of peptide cleavage by trypsin (cleaved peptide signal) ([2]; 20 μM compound, 30 μM peptide, 22° C., quenched after 30 minutes): missing cleaved peptide signal

Compound: CN[C@@H]1C[C@H]2O[C@@](C)([C@@H]1OC)n1c3ccccc3c3c4c(c5c6ccccc6n2c5c31)C(=O)NC4 [staurosporine]
formation of phosphorylated peptide in the presence of inhibitor ([1]; 10 μM Staurosporine, 50 nM protein, 30 μM peptide, 131 μM ATP): did not result in any formation of phosphorylated peptide
